T1: potato lectin (Solanum Tuberosum Lectin, Vector labs, cat#: L-1160) (Solanum tuberosum (potato), UniProt Q9S8M0 23-323)
T1 construct: Bought glycoprotein coated on ELISA wells as an unrelated control compound
T1 sequence: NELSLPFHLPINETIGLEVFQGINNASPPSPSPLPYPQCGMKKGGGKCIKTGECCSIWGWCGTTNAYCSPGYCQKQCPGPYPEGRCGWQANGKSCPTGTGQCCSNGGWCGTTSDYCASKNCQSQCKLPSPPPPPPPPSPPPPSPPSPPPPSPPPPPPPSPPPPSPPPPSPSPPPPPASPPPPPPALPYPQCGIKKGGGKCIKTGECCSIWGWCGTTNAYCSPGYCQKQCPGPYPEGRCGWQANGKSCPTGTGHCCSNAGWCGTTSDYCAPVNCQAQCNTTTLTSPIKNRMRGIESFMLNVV

B1: anti-GlcCer VHH 41D01 (VHH)
VHH: QVQLQESGGGLVQAGGSLRLSCAASGRTFSRYGMGWFRQLPGKQRELVTSITRGGTTTYADSVKGRFTISRDNAKNTVYLQMNSLKPEDTAVYYCNARSIWRDYWGQGTQVTVSS
notes: Llama VHH raised against fungal glucosylceramide, made in E. coli and purified through its hexahistidine tag; Tested as purified VHH at 0.1 ug/ml; also called GlcCer-specific VHH 41D01; not shown: C-terminal (His)6 and c-myc peptide tags coded by vector pASF20
B2: anti-GlcCer VHH 56F11 (VHH)
VHH: QVQLQESGGGLVQSGGSLRLSCVHSKTTFTRNAMGWYRQALGKERELVATITSGGTTNYADSVKGRFTISMDSAKNTVYLQMNSLKPEDTAVYYCNVNTRRIFGGTVREYWGQGTQVTVSS
notes: Llama VHH raised against fungal glucosylceramide, made in E. coli and purified through its hexahistidine tag; Tested as purified VHH at 1 ug/ml; not shown: C-terminal (His)6 and c-myc peptide tags coded by vector pASF20

Target: T1, potato lectin (Solanum Tuberosum …)
Experiment: ELISA, purified VHH on wells coated with potato lectin, OD 405 nm

Binder	binding result
B1	no binding (tested: 0.1 µg/ml)
B2	no binding (tested: 1 µg/ml)

From patent US20160145325A1 (AGROSAVFE N V, published 2016)
